As a reminder, the Kd is the concentration at which binding is half-saturated.

The assay deals with T1, ectodomain of murine βKlotho (F53 to L995 of SEQ ID NO: 218) with a C-terminal FLAG tag (UniProt Q99N32 53-995).
T1 chain: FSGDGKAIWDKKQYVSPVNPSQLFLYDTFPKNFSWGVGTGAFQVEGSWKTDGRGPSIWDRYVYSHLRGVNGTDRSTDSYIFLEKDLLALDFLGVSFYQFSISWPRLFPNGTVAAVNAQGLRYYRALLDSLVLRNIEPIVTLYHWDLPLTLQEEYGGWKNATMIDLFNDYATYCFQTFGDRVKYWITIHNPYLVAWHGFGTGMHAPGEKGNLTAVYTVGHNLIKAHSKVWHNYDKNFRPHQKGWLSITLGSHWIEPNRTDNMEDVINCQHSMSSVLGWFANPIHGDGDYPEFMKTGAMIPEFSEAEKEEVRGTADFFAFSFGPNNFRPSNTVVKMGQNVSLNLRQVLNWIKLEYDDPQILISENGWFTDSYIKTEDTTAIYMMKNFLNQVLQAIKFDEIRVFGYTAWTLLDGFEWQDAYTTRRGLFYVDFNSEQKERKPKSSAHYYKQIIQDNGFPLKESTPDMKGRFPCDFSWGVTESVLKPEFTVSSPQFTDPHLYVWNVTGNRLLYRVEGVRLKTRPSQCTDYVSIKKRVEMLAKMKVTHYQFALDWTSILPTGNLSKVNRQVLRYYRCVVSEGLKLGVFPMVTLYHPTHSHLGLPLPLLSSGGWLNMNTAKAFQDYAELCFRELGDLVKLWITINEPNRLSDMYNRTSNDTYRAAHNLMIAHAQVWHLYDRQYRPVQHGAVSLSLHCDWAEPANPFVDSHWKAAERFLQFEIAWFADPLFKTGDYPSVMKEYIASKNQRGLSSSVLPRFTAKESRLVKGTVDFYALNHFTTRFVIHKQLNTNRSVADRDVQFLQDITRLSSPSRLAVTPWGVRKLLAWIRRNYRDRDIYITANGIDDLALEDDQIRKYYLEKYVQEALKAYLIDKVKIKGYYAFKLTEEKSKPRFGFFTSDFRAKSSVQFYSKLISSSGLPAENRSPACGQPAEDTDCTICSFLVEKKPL
Description: SPR.

B1: ligand-binding domain of human FGFR1c (D142 to R365 of SEQ ID NO: 221) (receptor)
chain: DNTKPNRMPVAPYWTSPEKMEKKLHAVPAAKTVKFKCPSSGTPNPTLRWLKNGKEFKPDHRIGGYKVRYATWSIIMDSVVPSDKGNYTCIVENEYGSINHTYQLDVVERSPHRPILQAGLPANKTVALGSNVEFMCKVYSDPQPHIQWLKHIEVNGSKIGPDNLPYVQILKTAGVNTTDKEMEVLHLRNVSFEDAGEYTCLAGNSIGLSHHSAWLTVLEALEER
Molecule B1 came in with a Kd of 124 nM.

B2: ligand-binding domain of human FGFR2c (N149 to E368 of SEQ ID NO: 226) (receptor)
chain: NNKRAPYWTNTEKMEKRLHAVPAANTVKFRCPAGGNPMPTMRWLKNGKEFKQEHRIGGYKVRNQHWSLIMESVVPSDKGNYTCVVENEYGSINHTYHLDVVERSPHRPILQAGLPANASTVVGGDVEFVCKVYSDAQPHIQWIKHVEKNGSKYGPDGLPYLKVLKAAGVNTTDKEIEVLYIRNVTFEDAGEYTCLAGNSIGISFHSAWLTVLPAPGREKE
B2 yielded a Kd of 170 nM.
